Assay results taken from patent US20090099029A1, “Methods and substrates for conducting assays” (Invitrogen Corporation, priority 2005, published 2009).

System: kinases of Table 6 on Myelin Basic Protein (MBP)
Experiment: Kinase assay using MBP substrate, ProQ Diamond stain (Table 6)
Assay type: biochemical
Details: kinase printed on MBP-coated slide; 20 uM ATP, 30° C.; ProQ Diamond Microarray Stain; graded Strong/Weak/Negative
Description: In this illustrative example, four-well slides were designed with a hydrophobic mask surrounding 4-wells of aldehyde- or epoxy-coated glass (smooth or ES grade; Erie Scientific (Portsmouth, N.H.)). […] Bovine, dephosphorylated, Myelin Basic Protein (MBP) was purchased from Upstate Biotechnology (#13-110). MBP was diluted to 1 mg/ml in PBS, applied to the slide surface, covered with a coverslip, and left overnight at 4° C. to coat the slide with the MBP. Slides were washed 3 times with water and spun dry before printing.
Kinases were purchased from Panvera (Invitrogen, Carlsbad, Calif.), diluted in printing buffer (50 mM Tris pH 7.5, 25% glyercol, 0.05% TritonX-100, 2 mM DTT) and deposited using a GeneMachine OmniGrid100. Slides were stored at −20° C.
Reactions were performed following removal of the slide from the freezer. Reaction buffer (20 mM HEPES pH 7.5, 4 mM MgCl2, 2 mM DTT, 20 uM ATP, 5% DMSO) was added with or without inhibitor, a coverslip applied, and the slide placed at 30° C. for the appropriate reaction time. The slide was washed with water to stop the reaction (3 times) and spun dry. ProQ Diamond Microarray Stain (Invitrogen #P33706) was applied, covered with a coverslip, and the slide was incubated in the dark at room temperature for 30 minutes. The slide was destained and washed three times with water, and spun dry.

Row | Compound | MBP Kinase Activity
1 | RPS6KA3(RSK2) | Strong
2 | STK24(MST3) | Weak
3 | ABL1 | Weak
4 | CSNK1E(CK1eps) | Negative
5 | PRKCB1 | Strong
6 | PRKCA | Strong
7 | MAP2K2(MEK2) | Negative
8 | FYN | Strong
9 | KDR(VEGFR2) | Strong
10 | IKBKB | Weak
11 | NEK7 | Negative
12 | RPS6KA5(MSK1) | Weak
13 | MST4 | Negative
14 | MLCK | Negative
15 | CDK5/p35 | Strong
16 | LYNA | Weak
17 | AKT1 | Strong
18 | ERBB2 | Negative
19 | BLK | Weak
20 | TBK1 | Strong
21 | GSK3B | Negative

Row | Compound | MBP Kinase Activity
22 | GRK5 | Negative
23 | CSNK1G3 | Weak
24 | WEE1 | Negative
25 | CSNK2A1(CK2alpha1) | Strong
26 | FGFR1 | Strong
27 | PKN1(PRK1) | Strong
28 | PRKCB2 | Strong
29 | YES1 | Weak
30 | ADRBK1(GRK2) | Negative
31 | MAPK1(ERK2) | Strong
32 | NTRK3 | Strong
33 | PRKCI | Strong
34 | CLK3 | Strong
35 | CSNK1G1(CK1gamma1) | Negative
36 | CLK4 | Negative
37 | EPHA7 | Weak
38 | PHKG1 | Negative
39 | FGR | Weak
40 | NEK6 | Negative
41 | MAPKAPK2 | Strong
42 | PRKCD | Strong

Row | Compound | MBP Kinase Activity
43 | CLK1 | Strong
44 | NTRK1 | Strong
45 | PLK1 | Negative
46 | INSR | Strong
47 | LCK | Strong
48 | PRKCQ | Strong
49 | STK6(AuroraA) | Weak
50 | HCK | Strong
51 | CSNK1G2 | Negative
52 | MAP2K1(MEK1) | Negative
53 | MAPK3(ERK1) | Strong
54 | CHEK2 | Strong
55 | PRKCG | Strong
56 | NTRK2 | Strong
57 | PIM1 | Strong
58 | STK25(YSK1) | Strong
59 | PIM2 | Weak
60 | PTK6(BRK) | Strong
61 | MAP4K5(KHS1) | Negative

System: 39 kinases (Table 4)
Experiment: not given
Details: known general specificities of the inhibitors; cited from earlier work

Row | Compound | General Specificity
62 | Oc1ccc(-c2nc(-c3ccncc3)c(-c3ccc(F)cc3)[nH]2)cc1 [SB 202190] | Serine/threonine
